Measured values reported in FireProtDB (doi:10.1021/bi00150a028).

Conditions: Homo sapiens, pH 3, Thermal, DSC, glycine-HCl 0.05 M, reversible: yes, whole UniProt chain shown

B1: Lysozyme C wild type, P61626 (protein)
chain: MKALIVLGLVLLSVTVQGKVFERCELARTLKRLGMDGYRGISLANWMCLAKWESGYNTRATNYNAGDRSTDYGIFQINSRYWCNDGKTPGAVNACHLSCSALLQDNIADAVACAKRVVRDPQGIRAWVAWRNRCQNRDVRQYVQGCGV
heat capacity change of unfolding (57 °C): 1.55 kcal/mol/K
unfolding enthalpy (calorimetric) (57 °C): 101 kcal/mol
unfolding free energy (57 °C): 4.6 kcal/mol
Tm: 71.4 °C
